The target of one experiment is Nbs1 1-382 (UniProt O60934). Put plainly: ITC.
A further experiment deals with Nbs1 (UniProt O60934). Briefly: far-western with FLAG-Nbs1. The conditions noted are these: reference: nonphosphorylated NTD; sites T13.

With “Rad51 NTD peptide (from UniProt Q06609) pT13 peptide”, the KD entry with Nbs1 1-382 (reference: nonphosphorylated peptide, sites T13) is given as “gained; reference no detectable binding”.
With “Rad51 NTD peptide (from UniProt Q06609) pT13/pS14 peptide”, the KD result in the experiment with Nbs1 1-382 (reference: pS14 peptide, sites T13) is on record as “gained; reference no detectable binding”; with Nbs1 1-382 (reference: pT13 peptide, sites S14), “weaker; reference around 20”.
As for “Rad51 NTD, 1-86 (from UniProt Q06609) CK2-phosphorylated NTD”, the “binding against the reference” value in the experiment with Nbs1 is given as “gained”.
